For one molecule, stoichiometry N (pCt per TD4 dimer), Kd and stoichiometry N results are on record in PMC4200520.

One may read the Kd as a measure of binding affinity in units of concentration. The low end stands for a tighter complex, the high end for a looser complex. The stoichiometry N is the number of molecules, sites or subunits per partner or assembly.

Assay [1] deals with TD4, minimal TACC domain (TD) fragment of XTACC3 (Xenopus). Briefly: SEC-MALS; TD4 with saturating concentrations of pCt; Superdex 200 10/300 GL, 20 mM Tris/HCl, 150 mM NaCl, 0.25 mM TCEP, pH 8.0. (In general: Size exclusion chromatography separates by hydrodynamic size, large species first.)
For assay [2] the target is unchanged. Briefly: SPR; TD4 (50 μg/ml) amine-coupled to a CM5 chip, peptides pCt or pCt_KD as analytes 10–250 μM; BIAcore X100, 20 °C, HBS (100 mM HEPES, 150 mM NaCl, 0.05% P20, pH 7.4); steady-state fit, single-site model. (In general: Surface plasmon resonance follows binding to a sensor surface in real time, without labels.)
Assay [3] shares this target. Briefly: ITC; TD4 (10–20 μM) in the cell, peptide (400–500 μM) in the syringe; 25 °C; 20 mM HEPES pH 7.5, 150 mM NaCl, 0.25 mM TCEP; one-site model. Background: ITC needs no label: the signal is the heat of the interaction.

As to STNIDDLKKRLERIKS [pCt, synthetic peptide of XMAP-Ct residues 46-61], in assay [1], the stoichiometry N (pCt per TD4 dimer) was determined as 4. Moreover, in assay [2], the Kd was found to be 30 µM. Moreover, in assay [3], the Kd was 11 µM and the stoichiometry N was 0.5 TD4:pCt.
